Usually Tmax stands for the time from dosing to the highest level. The Cmax is the peak of the concentration-time curve.

This is an account of results in patent US11453711B2, “Fusion proteins of GLP-1 and GDF15 and conjugates thereof” (BEIJING QL BIOPHARMACEUTICAL CO., LTD., priority 2019, dated 2022).

The nature of series [1]: Additive or synergistic effect: body weight and food intake in C57BL/6 mice, 30 nmol/kg daily sc 10 days. Conditions: versus negative controls MLC096 and MLC097. Format: in vivo. How it is done: FIGS. 7A-7B show In vivo efficacy in C57 lean mice. To evaluate the body weight and food intake effects of the fusion proteins, 10 week old male C57BL/6J mice were dosed everyday subcutaneously with 30 nmol/kg protein for 10 days. Food intake and body weight were measured daily. […] Data are expressed as mean values and standard error (SEM) for FIG. 7A. n=5 for each treatment group. For FIG. 7B, a pooled food intake was measured for each treatment group.
10 week old male C57BL/6 mice were injected everyday subcutaneously with 30 nmol/kg of the unconjugated fusion proteins (i.e., MLC096, MLC097 and MLCO21) for 10 days. Food intake and body weight were measured daily and five animals were used for each treatment group. Body weight (BW) was monitored for each individual animal, but food intake for each group animals was measured together. Day 1 and Day 10 are first day and last day of molecule dosage. % BW loss=100*(BW on Day n-BW on Day 1)/(BW on Day 1). Cumulative food intake on Day n represents sum of food intake from Day 1 to Day n. Data are indicated as mean values and standard error (SEM) or pooled values. Statistical analysis was performed by One-way ANOVA.
As discussed above, MLC096 and MLC097 were used as negative controls, as they contained known inactivating mutation in GDF15 or GLP-1.

A short description of series [2]: Body weight and food intake in C57BL/6 mice, unconjugated fusion proteins, 30 nmol/kg daily 10 days. Format: in vivo. How it is done: 10 week old male C57BL/6 mice were injected everyday subcutaneously with 15 nmol/kg of the fusion protein conjugates (i.e., MLC002, MLC 004, MLC 005, MLC 006, MLC 007, MLC 008, and MLC 009) for 14 days. Food intake and body weight were measured daily and five animals were used for each treatment group. Body weight (BW) was monitored for each individual animal, but food intake for each group animals was measured together. Day 1 and Day 14 are first day and last day of molecule dosage. % BW loss=100*(BW on Day n-BW on Day 1)/(BW on Day 1). Cumulative food intake on Day n represents sum of food intake from Day 1 to Day n. Data are indicated as mean values and standard error (SEM) or pooled values. Statistical analysis was performed by One-way ANOVA. Body weight reduction on Day 11 is calculated by −1*(% BW loss−% BW loss of vehicle group); Cumulative food intake reduction is calculated by −100*(cumulative food intake-cumulative food intake of vehicle)/cumulative food intake of vehicle.
As described in the above method, a daily dose of 30 nmol/kg of the unconjugated fusion proteins (i.e., MLC100, MLC023, MLC022, MLC020, MLC003, MLC124, MLC021, MLC019, MLC102) were administered to C57BL/6 for 10 days. Data were calculated as above method. Day 1 and Day 10 are first day and last day of administration.

For series [3] the following is noted: cynomolgus monkey, in vivo, sc, 5 nmol/kg.
The nature of series [4]: Efficacy in db/db mice: body weight, food intake, glucose, biomarkers, daily sc 14 days. Format: in vivo.
Series [5] can be described thus: Body weight and food intake in C57BL/6 mice, fusion protein conjugates, 30 nmol/kg daily 10 days. Format: in vivo. In short, it runs like this:
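Male C57BL/6 mice received fusion protein conjugates by daily subcutaneous injection, with dosing running from Day 1 to Day 10. Body weight was recorded daily per animal and food intake daily per group. Body weight reduction was expressed relative to vehicle percent loss from Day 1. Cumulative food intake reduction was expressed as percent decrease versus vehicle.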

Series [6] can be described thus: Pharmacokinetic measurement in mouse, single sc dose 30 nmol/kg, plasma ELISA. Conditions: single sc dose 30 nmol/kg. On the technique in general: ELISA stands for enzyme-linked immunosorbent assay.
A short description of series [7]: PK study in non-human primates, single sc dose 5 nmol/kg, plasma ELISA. Conditions: monkey, single sc dose 5 nmol/kg.
The conditions of series [8]: mouse, in vivo, sc, 30 nmol/kg.
The mark [9] stands for this setting: C57 mice, 30 nmol/kg daily, Day11, unconjugated fusion proteins.
Where [10] appears, read: 30 nmol/kg, FIG. 5A-E, versus Semaglutide, Tirzepatide and MLC014.

Positions count from the first letter of the chain named.

B1: MLC021: unconjugated GLP-1/GDF15 fusion protein, linker of at least 80 residues (protein)
chain: HGEGTFTSDVSSYLEEQAAKEFIAWLVRGGGGQEPGAQPGQEPGAQPGQEPGAQPGQEPGAQPGQEPGAQPGQEPGAQPGAQPGAQPGAQPGAQPGAQPGAQPGAQPGAQPARQGDHCPLGPGRCCRLHTVRASLEDLGWADWVLSPREVQVTMCIGACPSQFRAANLHAQIKTSLHRLKPDTVPAPCCVPASYNPMVLIQKTDTGVSLQTYDDLLAKDCHCI
For B1, in series [1], the “body weight reduction efficacy” value is “much better body weight reduction efficacy” and the food intake entry was “decreased food intake”. For the same molecule, in series [2] (setting [9]), the “Body weight reduction at 30 nmol/kg (% reduction compared to vehicle)(Day11)” value stood at 22.1% and the “Cumulative food intake reduction at 30 nmol/kg (% reduction compared to vehicle)(Day11)” value was 48.7%. In addition, in series [2] (unconjugated fusion proteins, 30 nmol/kg daily 10 days, by linker length), the “in vivo efficacy (food intake and body weight reduction)” value is reported as “the most significant results among all the tested fusion proteins”.

B2: MLC047: fusion polypeptide SEQ ID NO: 330 conjugated with Moiety A at 40K of linker (conjugate)
chain: B1 chain with K20R, P71K, K180R, K202R, K218R
For the molecule B2, the “AUC0-96 h” value in series [3] worked out at 1.541 µM·h. Further, in series [4] (setting [10]), the body weight loss entry is “sustainable and much better effect”; the food intake suppression result was “sustainable and much better effect”. Besides, the efficacy result in series [4] (FIG. 5 study) was “better efficacy than Semaglutide and GDF15 derivative (MLC014)”. In addition, in series [5], the “Body weight reduction at 30 nmol/kg (% reduction compared to vehicle)(Day11)” value turned out to be 24.7% and the “Cumulative food intake reduction at 30 nmol/kg (% reduction compared to vehicle)(Day11)” value is reported as 51.2%. Moreover, the time of peak concentration (Tmax) in series [6] amounted to 10.7 h. Besides, in series [7], the time to peak (Tmax) worked out at 16 h. Further, in series [8], the “AUC0-24 h” value came to 1.2468 µM·h, the Cmax came to 71.9 nM and the “Terminal t1/2” value was found to be 9.3 h.
